Data from patent US20210087244A1.

Target: A-beta42 Monomer (human)
Experiment: SPR direct binding (MASS-1), hybridoma supernatant over immobilized antigen

A-beta42 Monomer (human), sequence (peptide, as listed by the source): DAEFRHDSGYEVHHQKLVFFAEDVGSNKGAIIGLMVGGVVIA

B1: 301-12G11 (17) (antibody, V domains shown)
VH: QVQLQQPGAELVKPGASVKMSCKASGYSFTSYWINWVKQRPGQGLEWIGDVHPGRGVSTYNAKFKSKATLTLDTSSSTAYMQLSSLTSEDSAVYYCSRSHGNTYWFFDVWGAGTTVTVSS
VL: DVLMTQTPLSLPVSLGDQASISCRSSQSIVHSNGNTYLEWYLQKPGQSPKLLIYKVSNRFSGVPDRFSGSGSGTDFTLKISRVEAEDLGVYYCFQGSHVPFTFGSGTKLEIKR
  response units (RU): 46 RU
